Measurements: PMC11417369, “DNA sequence and chromatin differentiate sequence-specific transcription factor binding in the human malaria parasite Plasmodium falciparum”

T1: SIP2 D1 (Plasmodium falciparum, UniProt C6KSN9 177-235)
T1 sequence: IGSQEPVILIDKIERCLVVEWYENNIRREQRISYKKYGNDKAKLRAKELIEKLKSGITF

B1: GTGCAC_site10328 (dsDNA)
DNA 1: AAATTCTGCATCGAGGTGCGCCATAAAAATTGTGGT
DNA 2: ACCACAATTTTTATGGCGCACCTCGATGCAGAATTT
B2: GTGCAC_site10727 (dsDNA)
DNA 1: ATAGAAGGCAACTTGGTGCACAAAAAAAAAAATAAT
DNA 2: ATTATTTTTTTTTTTGTGCACCAAGTTGCCTTCTAT
B3: GTGCAC_site10198 (dsDNA)
DNA 1: TTTTTAACGTATAAGGTGCACTGTATATGGTACTCA
DNA 2: TGAGTACCATATACAGTGCACCTTATACGTTAAAAA
B4: GTGCAC_site9754 (dsDNA)
DNA 1: ATATAATATTTTAGAGTGCACCGATAACAATAAATA
DNA 2: TATTTATTGTTATCGGTGCACTCTAAAATATTATAT
B5: GTGCAC_site10015 (dsDNA)
DNA 1: TATAATGGTTCTGGTGTGCACCATGACAGAATCAAG
DNA 2: CTTGATTCTGTCATGGTGCACACCAGAACCATTATA
B6: GTGCAC_site10082 (dsDNA)
DNA 1: ATAATAACTTGTAAGGTGCATTTTATGTTTTCTTAA
DNA 2: TTAAGAAAACATAAAATGCACCTTACAAGTTATTAT
B7: GTGCAC_site10039 (dsDNA)
DNA 1: CAGTAGTTTTTATGGGTGCAAAACATATATATAACA
DNA 2: TGTTATATATATGTTTTGCACCCATAAAAACTACTG
B8: GTGCAC_site9760 (dsDNA)
DNA 1: ATAATTATTCTTATGGTGCACTGAATATACATGTTG
DNA 2: CAACATGTATATTCAGTGCACCATAAGAATAATTAT
B9: GTGCAC_site10429 (dsDNA)
DNA 1: TATAAGTGCTCAACGGTGCATTTATAGAAGTTAAAC
DNA 2: GTTTAACTTCTATAAATGCACCGTTGAGCACTTATA
B10: GTGCAC_site9525 (dsDNA)
DNA 1: CTGCGTTTAATATGCGTGCACCTTGGTTTTATATCT
DNA 2: AGATATAAAACCAAGGTGCACGCATATTAAACGCAG
B11: GTGCAC_site9650 (dsDNA)
DNA 1: CAATTTGGTGTACAGGTGCACATGCCTCACGATAAA
DNA 2: TTTATCGTGAGGCATGTGCACCTGTACACCAAATTG
B12: GTGCAC_site10519 (dsDNA)
DNA 1: CATGCCTTTAAAAAGGTGCAAACATTTTCACAAACA
DNA 2: TGTTTGTGAAAATGTTTGCACCTTTTTAAAGGCATG
B13: GTGCAC_site10505 (dsDNA)
DNA 1: ATTATTACTTTTTGAGTGCACATACACACAGACATA
DNA 2: TATGTCTGTGTGTATGTGCACTCAAAAAGTAATAAT
B14: GTGCAC_site9853 (dsDNA)
DNA 1: ACTATTTAATATAGGGTGCAACTTTTTCAAGTAAAT
DNA 2: ATTTACTTGAAAAAGTTGCACCCTATATTAAATAGT
B15: GTGCAC_site10403 (dsDNA)
DNA 1: CTGTAAAATGTGATGGTGCATATTAATTTAGTTGTA
DNA 2: TACAACTAAATTAATATGCACCATCACATTTTACAG
B16: GTGCAC_site10066 (dsDNA)
DNA 1: TAAACATATAGAGGGGTGCAAAGAATTGTAAAATTT
DNA 2: AAATTTTACAATTCTTTGCACCCCTCTATATGTTTA
B17: GTGCAC_site10448 (dsDNA)
DNA 1: TATTAATTTAAATGGGTGCAAAACCTATATAAATAT
DNA 2: ATATTTATATAGGTTTTGCACCCATTTAAATTAATA
B18: GTGCAC_site10397 (dsDNA)
DNA 1: ATATATAATAAACAGGTGCATTGTTTTATTTTGTAT
DNA 2: ATACAAAATAAAACAATGCACCTGTTTATTATATAT
B19: GTGCAC_site10688 (dsDNA)
DNA 1: AGTGACACCAAAGGGGTGCAATGAAATTAAAAATAT
DNA 2: ATATTTTTAATTTCATTGCACCCCTTTGGTGTCACT
B20: GTGCAC_site10200 (dsDNA)
DNA 1: CTCATTTTTGTACAGGTGCACTTATCGTTACACTAT
DNA 2: ATAGTGTAACGATAAGTGCACCTGTACAAAAATGAG
B21: GTGCAC_site10454 (dsDNA)
DNA 1: TTTTTAATATATTAGGTGCACAATAATACACTTTAT
DNA 2: ATAAAGTGTATTATTGTGCACCTAATATATTAAAAA
B22: GTGCAC_site10759 (dsDNA)
DNA 1: ATTAAATTTCCTTGAGTGCACATTTTGTTAAAATAT
DNA 2: ATATTTTAACAAAATGTGCACTCAAGGAAATTTAAT
B23: GTGCAC_site10547 (dsDNA)
DNA 1: CGTTGGTATTAAAAGGTGCAATGAAATAATATATTA
DNA 2: TAATATATTATTTCATTGCACCTTTTAATACCAACG
B24: GTGCAC_site10385 (dsDNA)
DNA 1: GTGGTTGTAATGGTGGTGCATATTGTATATTATGTT
DNA 2: AACATAATATACAATATGCACCACCATTACAACCAC
B25: GTGCAC_site10197 (dsDNA)
DNA 1: TCCATATGCAAACTGGTGCACAAGTAGCTTTTATAT
DNA 2: ATATAAAAGCTACTTGTGCACCAGTTTGCATATGGA
B26: GTGCAC_site10740 (dsDNA)
DNA 1: AAAAATTAACAAAAGGTGCAATTTATTTATTAACGG
DNA 2: CCGTTAATAAATAAATTGCACCTTTTGTTAATTTTT
B27: GTGCAC_site10674 (dsDNA)
DNA 1: AAAAAAAAAAAAAAGGTGCAAATAAATTAACCTTAT
DNA 2: ATAAGGTTAATTTATTTGCACCTTTTTTTTTTTTTT
B28: GTGCAC_site10141 (dsDNA)
DNA 1: ACCCATTTTAATTTAGTGCACATTTTACCTTTATAC
DNA 2: GTATAAAGGTAAAATGTGCACTAAATTAAAATGGGT
B29: GTGCAC_site9720 (dsDNA)
DNA 1: TATATTAAAAAAGAGGTGCATTCGTAAGAGGTTAAA
DNA 2: TTTAACCTCTTACGAATGCACCTCTTTTTTAATATA
B30: GTGCAC_site9862 (dsDNA)
DNA 1: ACACATACACATTAGGTGCACATAATTCAATATTAC
DNA 2: GTAATATTGAATTATGTGCACCTAATGTGTATGTGT
B31: GTGCAC_site10577 (dsDNA)
DNA 1: TTTTTTTTCTATGTGGTGCACATTATTTTTTTTTTT
DNA 2: AAAAAAAAAAATAATGTGCACCACATAGAAAAAAAA
B32: GTGCAC_site9532 (dsDNA)
DNA 1: ATATATATATTAAAGGTGCACAAATAAATATATACA
DNA 2: TGTATATATTTATTTGTGCACCTTTAATATATATAT

Target: T1, SIP2 D1
Assay: gcPBM; about 25 ug protein; PBS, 1% milk, 0.2 mg/ml BSA, salmon testes DNA, 0.03% Triton X-100
Settings: tags: N-terminal GST (pGEX-4T-1), kept; label: surface-attached array probe

Binder	binding signal
B1	10.9 ln median PBM intensity, better of two orientations
B2	11.4 ln median PBM intensity, better of two orientations
B3	11.5 ln median PBM intensity, better of two orientations
B4	11.4 ln median PBM intensity, better of two orientations
B5	11.4 ln median PBM intensity, better of two orientations
B6	10.8 ln median PBM intensity, better of two orientations
B7	11.3 ln median PBM intensity, better of two orientations
B8	11 ln median PBM intensity, better of two orientations
B9	10.8 ln median PBM intensity, better of two orientations
B10	11.3 ln median PBM intensity, better of two orientations
B11	11.3 ln median PBM intensity, better of two orientations
B12	11.4 ln median PBM intensity, better of two orientations
B13	10.6 ln median PBM intensity, better of two orientations
B14	11.5 ln median PBM intensity, better of two orientations
B15	10.8 ln median PBM intensity, better of two orientations
B16	10.8 ln median PBM intensity, better of two orientations

Binder	binding signal
B17	11.1 ln median PBM intensity, better of two orientations
B18	10.5 ln median PBM intensity, better of two orientations
B19	10.6 ln median PBM intensity, better of two orientations
B20	11.5 ln median PBM intensity, better of two orientations
B21	11.3 ln median PBM intensity, better of two orientations
B22	10.7 ln median PBM intensity, better of two orientations
B23	10.7 ln median PBM intensity, better of two orientations
B24	10.7 ln median PBM intensity, better of two orientations
B25	11 ln median PBM intensity, better of two orientations
B26	10.9 ln median PBM intensity, better of two orientations
B27	11.4 ln median PBM intensity, better of two orientations
B28	10.5 ln median PBM intensity, better of two orientations
B29	10.6 ln median PBM intensity, better of two orientations
B30	11.3 ln median PBM intensity, better of two orientations
B31	11.4 ln median PBM intensity, better of two orientations
B32	11.3 ln median PBM intensity, better of two orientations
